US20220177587A1, “METHODS AND USES OF VARIANT CD80 FUSION PROTEINS AND RELATED CONSTRUCTS” (Alpine Immune Sciences, Inc., priority 2018, published 2022)
Like-named read-outs stand apart in the source and are kept apart here.

How the values were obtained:
PD-L1 (human) = PD-L1 (human) (UniProt Q9NZQ7); experiment: flow cytometry, CHO cells stably expressing PD-L1
CD28 (human) [1] = molecular target: CD28 (human) (UniProt P10747); experiment: flow cytometry, Jurkat cells (CD28)
human CTLA-4 (human) = human CTLA-4 (human) (UniProt P16410); experiment: flow cytometry, CHO cells stably expressing CTLA4
Chain of human CTLA-4 (human) (P16410 36-223): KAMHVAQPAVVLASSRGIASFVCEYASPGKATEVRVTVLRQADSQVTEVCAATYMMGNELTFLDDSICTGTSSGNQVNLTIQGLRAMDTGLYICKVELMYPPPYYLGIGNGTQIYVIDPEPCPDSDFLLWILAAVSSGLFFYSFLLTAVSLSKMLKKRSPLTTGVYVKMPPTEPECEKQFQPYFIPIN

CD28 (human) [2] = molecular target: CD28 (human) (UniProt P10747); experiment: flow cytometry, Jurkat cells (CD28); remark: listed apart in the source

## variant CD80 IgV-Fc A26E/E35D/M47L/A71G/D90G (Fc fusion)
PD-L1 (human)
  MFI at 33.3 nM: 14600 MFI
CD28 (human) [1]
  MFI at 33.3 nM: 1270 MFI
Human CTLA-4 (human)
  MFI at 33.3 nM: 22100 MFI

## variant CD80 IgV-Fc E35D/V68M/A71G/D90G (Fc fusion)
PD-L1 (human)
  MFI at 33.3 nM: 28000 MFI
CD28 (human) [1]
  MFI at 33.3 nM: 2840 MFI
Human CTLA-4 (human)
  MFI at 33.3 nM: 23300 MFI

## CD80 IgV-Fc A26E/Q27R/E35D/M47L/N48Y/L85Q (Fc fusion)
CD28 (human) [2]
  MFI at 33.3 nM: 78 MFI

## variant CD80 IgV-Fc H18Y/A26E/E35D/V68M (Fc fusion)
PD-L1 (human)
  MFI at 33.3 nM: 17900 MFI
CD28 (human) [1]
  MFI at 33.3 nM: 372 MFI
Human CTLA-4 (human)
  MFI at 33.3 nM: 20900 MFI

## variant CD80 IgV-Fc H18Y/A26E/M47L/V68M/A71G/D90G (Fc fusion)
PD-L1 (human)
  Fold change to WT CD80: 727 fold
  MFI at 33.3 nM: 31700 MFI
CD28 (human) [1]
  Fold change to WT CD80: 58.2 fold
  MFI at 33.3 nM: 2560 MFI
Human CTLA-4 (human)
  MFI at 33.3 nM: 121 MFI

## variant CD80 IgV-Fc A26E/E35D/M47L/V68M/D90G (Fc fusion)
PD-L1 (human)
  MFI at 33.3 nM: 25000 MFI
Human CTLA-4 (human)
  MFI at 33.3 nM: 26700 MFI

## variant CD80 IgV-Fc E35D/M47L/V68M/A71G/D90G (Fc fusion)
PD-L1 (human)
  MFI at 33.3 nM: 29400 MFI
CD28 (human) [1]
  MFI at 33.3 nM: 3070 MFI
Human CTLA-4 (human)
  MFI at 33.3 nM: 26000 MFI

## variant CD80 IgV-Fc A26E/E35D/M47L/V68M/A71G (Fc fusion)
PD-L1 (human)
  Fold change to WT CD80: 638 fold
  MFI at 33.3 nM: 27800 MFI
CD28 (human) [1]
  MFI at 33.3 nM: 417 MFI
Human CTLA-4 (human)
  Fold change to WT CD80: 18.1 fold
  MFI at 33.3 nM: 24600 MFI

## variant CD80 IgV-Fc H18Y/E35D/M47L/V68M/D90G (Fc fusion)
PD-L1 (human)
  MFI at 33.3 nM: 27400 MFI
CD28 (human) [1]
  MFI at 33.3 nM: 3390 MFI

## variant CD80 IgV-Fc H18Y/M47L/A71G/D90G (Fc fusion)
PD-L1 (human)
  MFI at 33.3 nM: 10800 MFI
CD28 (human) [1]
  MFI at 33.3 nM: 1600 MFI
Human CTLA-4 (human)
  MFI at 33.3 nM: 18200 MFI

## variant CD80 IgV-Fc H18Y/A26E/E35D/D90G (Fc fusion)
PD-L1 (human)
  MFI at 33.3 nM: 10000 MFI

## variant CD80 IgV-Fc A26E/M47L/V68M/A71G/D90G (Fc fusion)
PD-L1 (human)
  MFI at 33.3 nM: 28100 MFI
CD28 (human) [1]
  MFI at 33.3 nM: 2790 MFI
Human CTLA-4 (human)
  MFI at 33.3 nM: 21800 MFI

## CD80 ECD-Fc (Fc fusion)
PD-L1 (human)
  MFI at 33.3 nM: 6380 MFI
CD28 (human) [1]
  MFI at 33.3 nM: 42.3 MFI

## variant CD80 IgV-Fc A26E/E35D/V68M/A71G (Fc fusion)
PD-L1 (human)
  MFI at 33.3 nM: 12600 MFI
CD28 (human) [1]
  MFI at 33.3 nM: 135 MFI

## variant CD80 IgV-Fc A26E/M47L/V68M/D90G (Fc fusion)
PD-L1 (human)
  MFI at 33.3 nM: 10600 MFI
CD28 (human) [1]
  MFI at 33.3 nM: 2580 MFI
Human CTLA-4 (human)
  MFI at 33.3 nM: 21900 MFI

## variant CD80 IgV-Fc H18Y/E35D/M47L/A71G (Fc fusion)
PD-L1 (human)
  MFI at 33.3 nM: 11900 MFI
Human CTLA-4 (human)
  MFI at 33.3 nM: 22400 MFI

## variant CD80 IgV-Fc H18Y/E35D/V68M/A71G/D90G (Fc fusion)
PD-L1 (human)
  MFI at 33.3 nM: 30100 MFI
CD28 (human) [1]
  MFI at 33.3 nM: 2720 MFI
Human CTLA-4 (human)
  MFI at 33.3 nM: 24300 MFI

## variant CD80 IgV-Fc H18Y/A26E/A71G/D90G (Fc fusion)
CD28 (human) [1]
  MFI at 33.3 nM: 2000 MFI
Human CTLA-4 (human)
  MFI at 33.3 nM: 19900 MFI

## variant CD80 IgV-Fc E35D/M47L/V68M/A71G (Fc fusion)
PD-L1 (human)
  Fold change to WT CD80: 639 fold
  MFI at 33.3 nM: 27900 MFI
CD28 (human) [1]
  MFI at 33.3 nM: 806 MFI
Human CTLA-4 (human)
  Fold change to WT CD80: 18.1 fold
  MFI at 33.3 nM: 24700 MFI

## variant CD80 IgV-Fc H18Y/M47L/V68M/A71G/D90G (Fc fusion)
PD-L1 (human)
  MFI at 33.3 nM: 29500 MFI
Human CTLA-4 (human)
  MFI at 33.3 nM: 22200 MFI

## variant CD80 IgV-Fc H18Y/A26E/E35D/M47L/A71G/D90G (Fc fusion)
PD-L1 (human)
  MFI at 33.3 nM: 16900 MFI

## variant CD80 IgV-Fc H18Y/M47L/V68M/A71G (Fc fusion)
PD-L1 (human)
  MFI at 33.3 nM: 28500 MFI
CD28 (human) [1]
  MFI at 33.3 nM: 1190 MFI

## variant CD80 IgV-Fc A26E/M47L/V68M/A71G (Fc fusion)
PD-L1 (human)
  MFI at 33.3 nM: 1670 MFI
CD28 (human) [1]
  MFI at 33.3 nM: 98.7 MFI
Human CTLA-4 (human)
  MFI at 33.3 nM: 3230 MFI

## variant CD80 IgV-Fc H18Y/E35D/M47L/A71G/D90G (Fc fusion)
PD-L1 (human)
  Fold change to WT CD80: 306 fold
  MFI at 33.3 nM: 13300 MFI
CD28 (human) [1]
  MFI at 33.3 nM: 1270 MFI
Human CTLA-4 (human)
  Fold change to WT CD80: 16.9 fold
  MFI at 33.3 nM: 23000 MFI

## variant CD80 IgV-Fc H18Y/A26E/E35D/M47L/V68M/A71G (Fc fusion)
PD-L1 (human)
  Fold change to WT CD80: 655 fold
  MFI at 33.3 nM: 28500 MFI
CD28 (human) [1]
  MFI at 33.3 nM: 526 MFI
Human CTLA-4 (human)
  Fold change to WT CD80: 18.7 fold
  MFI at 33.3 nM: 25400 MFI
